Measured values from paper PMC7603069, “Crucial Role of the C-Terminal Domain of Hfq Protein in Genomic Instability”.

T1: Hfq-CTR peptide (Escherichia coli, UniProt P0A6X3)
T1 chain: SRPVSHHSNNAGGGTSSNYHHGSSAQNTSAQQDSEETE


Tests used:
Hfq-CTR peptide [1] = target: T1, Hfq-CTR peptide; assay: EMSA; quadruplex annealed in water without salt; EMSA: quadruplex prepared in water (95 C 5 min, slow cooling), 20 min at room temperature; native 4-20% polyacrylamide gel in TAE pH 8.0 (40 mM Tris-acetate, 1); details: parallel G-quadruplex
Hfq-CTR peptide [2] = target: T1, Hfq-CTR peptide; assay: EMSA?; method not stated for dG7; EMSA: quadruplex prepared in water (95 C 5 min, slow cooling), 20 min at room temperature; native 4-20% polyacrylamide gel in TAE pH 8.0 (40 mM Tris-acetate, 1); details: parallel G-quadruplex

Binder | Kd (Hfq-CTR peptide [1]) [nM] | Kd (Hfq-CTR peptide [2]) [nM]
GGGTGGGTGGGTGGGT (structured_DNA) [d(G3T)4] | 1060 ± 74 | –
GGGGGGG (structured_DNA) [dG7] | – | 981 ± 96
